Laboratory results: the supplement of paper PMC10567573
± gives the standard deviation.

Experiment: protein stability index of a GFP-peptide fusion (GPS, HEK-293T) (PSI 1-6); higher = more stable
[1] = treatment: DMSO, c terminus: a fixed tail appended
[2] = treatment: MLN4924 1 uM, 8 h, c terminus: a fixed tail appended
[3] = treatment: DMSO, c terminus: native
[4] = treatment: MLN4924 1 uM, 8 h, c terminus: native
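Note: 24-mer peptide tiles fused after GFP, lentivirally expressed, FACS-sorted into six equal bins by GFP/DsRed ratio, decoded by Illumina sequencing, PSI is the read-weighted mean bin number.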

Row | Sequence | protein stability index [1] | protein stability index [2] | protein stability index [3] | protein stability index [4]
1 | LAICRPLTYSTRMSQTVQRMLVAA [OR3A1] | 2.49 ± 0.17 | 2.54 ± 0.14 | – | –
2 | GATLGQTTSEEAVGGATLAQTTSE [HDAC6] | 5.37 ± 0.34 | 5.63 ± 0.31 | – | –
3 | LRPRPASSISLPIGHLGCISLLS [DMRTC1] | – | – | 2.47 ± 0.41 | 2.43 ± 0.33
4 | LEEAKQPKNDNVVIPECAHGGLYK [SMOC2] | 5.31 ± 0.14 | 5.146 ± 0.035 | – | –
5 | VVTSAREHIYDLRSLENYHFVDEH [CLINT1] | 2.85 ± 0.51 | 3.15 ± 0.45 | – | –
6 | QYRPSDLLCPETYVWVPIEQCLPS [ATE1] | 2.28 ± 0.23 | 2.47 ± 0.28 | – | –
7 | YDWLFFSPDKDSIMNIEPAILVMH [INTS3] | 2.61 ± 0.52 | 2.16 ± 0.21 | – | –
8 | YAAIVAVVAVHVVLALFVYVAWNE [VMA21] | 2.08 ± 0.31 | 2.1 ± 0.11 | – | –
9 | PAVPEEILKRLLKEQHLWDVDLLD [DLC1] | 2.97 ± 0.55 | 3.12 ± 0.34 | – | –
10 | WTNGSGLALCQRYYHRGHVDPAND [MCOLN1] | 3.11 ± 0.12 | 3.12 ± 0.21 | – | –
11 | DERRRLLEQKTQESQKKKQQDDSD [ZNF207] | 5.54 ± 0.33 | 5.53 ± 0.25 | – | –
12 | NKEYIKRLLMSQADKMTAEEVDQM [MYL5] | 4.53 ± 0.28 | 4.48 ± 0.23 | – | –
13 | LVLRRQLKNKCCPPPCKFGEGKLS [C22orf31] | 2.21 ± 0.31 | 2.52 ± 0.34 | – | –
14 | ADTKKRHTPRGHAESTSNRQPRKQ [SMOC2] | 5.34 ± 0.2 | 5.29 ± 0.15 | – | –
15 | DELDMSPGDPKWLDVIERDLHRQF [TBC1D10A] | 3.84 ± 0.21 | 3.8 ± 0.12 | – | –
16 | MTLEEFSAGEQKTERMDKVGDALE [GADD45A] | 5.28 ± 0.15 | 5.36 ± 0.18 | – | –
17 | TSRWSSMEIMEAYSVARQFNLTPP [KCNAB2] | 2.57 ± 0.22 | 2.84 ± 0.084 | – | –
18 | ECNECGKAFSRSSGLFNHRGIHNI [ZSCAN9] | 2.48 ± 0.59 | 2.16 ± 0.31 | – | –
19 | PKSPATPKQLRLINQPLPDLKNVK [MAP2] | 4.51 ± 0.27 | 4.793 ± 0.034 | – | –
20 | ADPMDWSPSNVQKWLLWTEHQYRL [SPDEF] | 2.47 ± 0.21 | 2.43 ± 0.35 | – | –
21 | QGSLENMSKLLKRQNDILQVVSQG [CD207] | 3.39 ± 0.22 | 3.64 ± 0.22 | – | –
22 | ILDLLVLEQFLSILPKELQGWVRE [ZSCAN9] | 2.38 ± 0.45 | 2.19 ± 0.39 | – | –
23 | ELVSADVIDLFDEQGLSALHLAAQ [RIPK4] | 3.02 ± 0.78 | 3.56 ± 0.4 | – | –

Row | Sequence | protein stability index [1] | protein stability index [2] | protein stability index [3] | protein stability index [4]
24 | SPAAPYFLGSSFSPVRCGGPGDAS [WEE1] | 3.06 ± 0.3 | 3.17 ± 0.35 | – | –
25 | FAHSSNLLRHQRIHTGERPYKCPE [ZNF263] | 2.99 ± 0.28 | 3.35 ± 0.36 | – | –
26 | KKGSNGYGFYLRAGSEQKGQIIKD [PDZK1] | 3.19 ± 0.44 | 3.33 ± 0.27 | – | –
27 | NKRKTYTESYIARPDGDCASSLNG [ZC2HC1A] | 4.18 ± 0.23 | 4.44 ± 0.3 | – | –
28 | ETIKCVVVGDNAVGKTRLICARAC [RHOBTB1] | 2.39 ± 0.2 | 2.44 ± 0.21 | – | –
29 | EEANADLEVKIRDWYQRQRPSEIK [KRT16] | 4.14 ± 0.64 | 4.72 ± 0.27 | – | –
30 | ILAHLTGTEFMQDPDEEHLKKSSQ [PDLIM7] | 3.9 ± 0.13 | 4.16 ± 0.25 | – | –
31 | ESSQTDLKLVAHPRAKSKVWKYFG [ZBED1] | 3.02 ± 0.31 | 3.42 ± 0.27 | – | –
32 | QMMSATAQNREPESVEQLESRIVE [SNX8] | 5.37 ± 0.17 | 5.56 ± 0.24 | – | –
33 | KTHTGEKPHRCHNCGKSFSRLTAL [ZNF449] | 2.47 ± 0.12 | 2.67 ± 0.45 | – | –
34 | DYSQLNESTTKESSEASQLEDAAG [FBXO34] | 5.47 ± 0.28 | 5.35 ± 0.46 | – | –
35 | FTGNSKLELNFKAGDVIFLLSRIN [NCF4] | 2.67 ± 0.76 | 3.16 ± 1.1 | – | –
36 | GFRLAEDGKRCRRKDVCKSTHHGC [MATN2] | 3.99 ± 0.66 | 4.09 ± 0.42 | – | –
37 | ADGFGDNPFYHCLVAEILPAPGKL [SAT2] | 2.27 ± 0.14 | 2.37 ± 0.42 | – | –
38 | KHGSLNRYHNSHPLRERARKLSQG [YJU2B] | 3.73 ± 0.19 | 3.84 ± 0.12 | – | –
39 | VYLHGDDHQDSDEFCRNTLCAPEV [FAF2] | 4.13 ± 0.22 | 4.23 ± 0.15 | – | –
40 | CPTLIYRETYPRTPYVRWNYVAKN [SOAT2] | 2.06 ± 0.23 | 2.36 ± 0.39 | – | –
41 | EPLQALLERASATLQDLVFDECGI [PRAME] | 2.25 ± 0.2 | 2.67 ± 0.18 | – | –
42 | PVVSMDLDPQPITDEEEGLIWVVG [PTPRD] | 3.96 ± 0.29 | 4.29 ± 0.48 | – | –
43 | ESEDCKLPSNPCATTNACEKPIGS [KRT33B] | 5.48 ± 0.097 | 5.34 ± 0.18 | – | –
44 | PDGKEMAEEYDEKTSELLVRKWRV [DPCD] | 4.31 ± 0.23 | 4.41 ± 0.11 | – | –
45 | HMFTPKLDKMLDPQVWREAATQVF [SLC6A17] | 2.11 ± 0.24 | 2.25 ± 0.47 | – | –
46 | GPLPVKRGPPPRSGGPPPKRSAPS [RBMX] | 4.49 ± 0.39 | 4.85 ± 0.25 | – | –

Row | Sequence | protein stability index [1] | protein stability index [2] | protein stability index [3] | protein stability index [4]
47 | YSFYMLTCIDMDWKVLTWLRYTLW [HACD3] | 2.63 ± 0.85 | 2.65 ± 0.36 | – | –
48 | EEDSFYRSSYPQQQGLGASYRTES [TBX5] | 4.37 ± 0.2 | 4.22 ± 0.15 | – | –
49 | VHSSPVSSPSVSGPRRLVSCLSSQ [SPACA3] | 3.38 ± 0.2 | 3.54 ± 0.18 | – | –
50 | KRESFLKYKCLLQQLYYTEADYED [IQUB] | 2.2 ± 0.31 | 2.49 ± 0.3 | – | –
51 | MVVSREEVELAYQEAMFNMATLNR [SEPHS2] | 2.93 ± 0.29 | 3.03 ± 0.2 | – | –
52 | EMRIPALNAYMKSLLSLPVWVLMD [NCF4] | 3.26 ± 0.95 | 2.92 ± 0.55 | – | –
53 | NWVIPAISAVAVALMYRLYMAED [CYB5A] | – | – | 3.92 ± 0.12 | 4.02 ± 0.19
54 | TLYTAKKYAVPALEAHCVEFLTKH [BTBD1] | 2.7 ± 0.28 | 2.48 ± 0.12 | – | –
55 | PPPPPKEGHQEGLVELPASFRELL [SCNN1D] | 4.29 ± 0.12 | 4.29 ± 0.1 | – | –
56 | LYPALKGVNTVFHCASPPPSSNNK [NSDHL] | 3.47 ± 0.064 | 3.52 ± 0.16 | – | –
57 | DGDAPGSLLPAQVAACAQTVVSLA [CEBPD] | 4.26 ± 0.19 | 4.12 ± 0.39 | – | –
58 | SAKNTSHPGSGTKVQFNLQFTKPN [SASS6] | 3.35 ± 0.12 | 3.61 ± 0.14 | – | –
59 | LVMEGTDDGRLLEYDTVTREVKVL [APMAP] | 3.5 ± 0.21 | 3.58 ± 0.37 | – | –
60 | AVGGRLRLVPGGQRPADVPEPGRA [HAGHL] | 4.22 ± 0.38 | 4.16 ± 0.43 | – | –
61 | QSRSFRILAHLTGTEFMQDPDEEH [PDLIM7] | 3.95 ± 0.11 | 4.17 ± 0.07 | – | –
62 | EQRTIQAQKESLQNQHHSASLQAS [APBB1IP] | 5.16 ± 0.19 | 4.99 ± 0.18 | – | –
63 | EVDEEGFTVRPDVTQNSTAEPSRF [FCHO1] | 5.26 ± 0.13 | 5.26 ± 0.2 | – | –
64 | AELQCEVAALREEQKVLSRLVESL [RASAL3] | 4.09 ± 0.23 | 3.94 ± 0.37 | – | –
65 | LSMERYALVFGVNTFIALALQTLL [SLC19A2] | 3.04 ± 0.22 | 2.93 ± 0.53 | – | –
66 | RFFIDFPHIEEQQKKIESYLHNHF [TENT5D] | 2.13 ± 0.38 | 2.35 ± 0.18 | – | –
67 | ETTERMKCLYYLYATLDLNAVKYV [PDS5B] | 2.88 ± 0.3 | 3.12 ± 0.47 | – | –
68 | QVEALAAAGVDHVILAVSYMSQVL [GMPPB] | 2.92 ± 0.65 | 2.48 ± 0.45 | – | –
69 | KLPPYLIFCIKRFTKNNFFVEKNP [USP39] | 3.02 ± 0.12 | 2.75 ± 0.4 | – | –

Row | Sequence | protein stability index [1] | protein stability index [2] | protein stability index [3] | protein stability index [4]
70 | KLFAHSSDLLSEFKKHDADKVGLI [PPEF2] | 2.63 ± 0.3 | 2.68 ± 0.38 | – | –
71 | DDFDEDELMAELEELEQEELNKKM [CHMP4C] | 5.16 ± 0.85 | 5.6 ± 0.3 | – | –
72 | SVKIIFKLPNDSRVERRFHFSQSL [FAF2] | 2.72 ± 0.67 | 2.76 ± 0.55 | – | –
73 | CSCEWMAAMFGGSFVESANSEVYL [RHOBTB1] | 2.96 ± 0.62 | 2.85 ± 0.89 | – | –
74 | LFKAHFRGEVLPEEITEESLEESV [INTS3] | 4.9 ± 0.091 | 4.962 ± 0.037 | – | –
75 | NARAQQRAAAQQRRSFLNAHHRSG [GNAS] | 4.28 ± 0.32 | 4.36 ± 0.14 | – | –
76 | SGLRMVPEHRAFGSPFGLEEPQWV [ZFYVE21] | 2.8 ± 0.14 | 2.93 ± 0.26 | – | –
77 | EEEERDQALQAKASLTIPLVPETE [YJU2B] | 5.42 ± 0.16 | 5.5 ± 0.12 | – | –
78 | KQSLVVAVQDHGQPPLSATVTLTV [PCDHGA10] | 2.72 ± 0.59 | 2.68 ± 0.45 | – | –
79 | DSGVQACFNRSREYQLNDSAAYYL [GNAI1] | 2.8 ± 0.15 | 2.75 ± 0.17 | – | –
80 | HDDGYMICCDKCSVWQHIDCMGID [KMT2E] | 2.67 ± 0.29 | 2.92 ± 0.42 | – | –
81 | EEADDTRYTQGTGGDEVDDSVSVN [ZC3H15] | 5.63 ± 0.19 | 5.62 ± 0.19 | – | –
82 | YPSVILRDPLQTDTLQNDYFAIKQ [ETS1] | 3.1 ± 0.41 | 3.3 ± 0.21 | – | –
83 | ETKKVLGLQDTITAELVVIEDAAE [PALM] | 4.92 ± 0.35 | 4.78 ± 0.32 | – | –
84 | SVDLMLGLPAQQVGPWLGQLQELL [RSAD1] | 2.38 ± 0.1 | 2.38 ± 0.45 | – | –
85 | SRTCIGSSHSRGPLSWAPCGPIAG | 2.76 ± 0.18 | 2.84 ± 0.36 | – | –
86 | IKPAPARAPACSPEAAAAQLRATA [FCHO1] | 3.53 ± 0.17 | 3.98 ± 0.13 | – | –
87 | NPQRQGLLKTPWRAASAMQFFTKG [GCH1] | 2.89 ± 0.29 | 2.76 ± 0.21 | – | –
88 | CPPGGIHQVTVNESLLAPLNVELD [KRT71] | 4.63 ± 0.29 | 4.54 ± 0.23 | – | –
89 | ALKAAKREQEKKPKKEANQAPKSK [LRRC59] | 5.24 ± 0.27 | 5.28 ± 0.18 | – | –
